Data reported in patent US20050053993A1, “Uses of an endothelial cell receptor” (priority 2002, published 2005).
In brackets after ≈: the same amount, converted by molar mass.

Key:
D54 = test: Tumor cell proliferation, D54; format: cell-based, human; conditions: Homo sapiens; D54, 72 hours
Procedure: (§1) Cell Proliferation Assay. The effect of rK5 and rK5 peptides on endothelial cells were assessed using a proliferation assay with 1% BSA and 3 ng/ml bFGF in serum-free media. Relative cell numbers in each well of a 96 well microplate after incubation for 72 hours in the absence or presence of inhibitors were determined by using the AQueous cell proliferation assay (Promega, San Luis Obispo, Calif.). For all other cell lines tested for proliferation, minimal growth media was used (Cao, Y., Ji, R., Davidson, D., Schaller, J., Marti, D., Sohndel, S., McCance, S., O'Reilly, M., Llinas, M., and Folkman, J. Kringle domains of human angiostatin. Characterization of the anti-proliferative activity on endothelial cells. (1996) J. Biol. Chem. 271, 29461-29467). Results are presented as the percent inhibition of control cell (bFGF-induced) proliferation.

LNCaP = test: Tumor cell proliferation, LNCaP; format: cell-based; conditions: Homo sapiens, 72 hours
Procedure: as §1

HT-29 = test: Tumor cell proliferation, HT-29; format: cell-based; conditions: Homo sapiens; HT-29, 72 hours
Procedure: as §1

P388 = test: Tumor cell proliferation, P388; format: cell-based; conditions: Mus musculus; P388, 72 hours
Procedure: as §1

HT1080 = test: Tumor cell proliferation, HT1080; format: cell-based, human; conditions: Homo sapiens, HT-1080; HT1080, 72 hours
Procedure: as §1

B16F10 = test: Tumor cell proliferation, B16F10; format: cell-based; conditions: Mus musculus, B16-F10; B16F10, 72 hours
Procedure: as §1

[1] = molecular target: GRP78 on the surface of human cells (EAHY, HMVEC, HT1080) (human) (UniProt P11021); test: Scatchard analysis of 125I-dog K5 binding to endothelial cells (50,000 cells per well, 1 hour room temperature)
[2] = molecular target: GRP78 on the surface of human cells (EAHY, HMVEC, HT1080) (human) (UniProt P11021); test: Scatchard analysis of 125I-dog K5 binding to endothelial cells
[3] = molecular target: GRP78 on the surface of human cells (EAHY, HMVEC, HT1080) (human) (UniProt P11021); test: cell-based or functional assay
[4] = molecular target: T1, GRP78 on the surface of human cells (EAHY, HMVEC, HT1080) (human, UniProt P11021 19-654); test: cell-based or functional assay
[5] = molecular target: T1, GRP78 on the surface of human cells …; test: labelled K5 binding to endothelial cells (FIG. 10A)
[6] = molecular target: T2, yeast-expressed recombinant human GRP78 (rGRP78) (human, UniProt P11021 19-654, limits assumed); test: equilibrium dialysis of rGRP78 and 3H-K5 (FIG. 14A)
T2 construct: also called recombinant GRP78

[7] = molecular target: T1, GRP78 on the surface of human cells …; test: cell-based or functional assay; remark: listed apart in the source
HMVECs = test: Competition of 3HK5 binding to endothelial cells; design: species or system human; conditions: 2 nM 3HK5; rK5(K82A) up to 500 nM
Procedure: Each K5 peptide or a N-terminal antibody to GRP78 was added to HMVECs at various concentrations for 1 hour at room temperature. Cells were washed and the amount of ^3HK5 bound was counted.
Binding of human ^125IrK5 to Endothelial Cells: Tritium-labeled rK5 was added to monolayers of 50,000 HMVEC cells that were either starved or stimulated for 16 hours by 15 ng/ml bFGF and 5 ng/ml VEGF in 96 well plates. The number of counts remaining bound to the cells after extensive washing determined total amount of rK5 bound (Dudani A K, Ganz P R. Endothelial cell surface actin serves as a binding site for plasminogen, tissue plasminogen activator and lipoprotein(a). Br J Haematol. 1996 October; 95(1): 168-78). Binding of ^125IK5 (dog) to Endothelial Cells and rK5 to Recombinant GRP78: The same methods as described above for the expression and purification of human K5 were used to express dog rK5 in E. coli. ^125IK5 (dog) was added to the wells and incubated at room temperature for 1 hour. After 1 hour the cells were washed and lysed with M-Per (Pierce, Racine, Wis.) and the amount of ^125IK5 (dog) bound was counted. Scatchard plot analysis was performed using Prism (GraphPad Software, Inc., San Diego, Calif.) software. Competition binding against 5 nM ^125IK5 (dog) was tested using a monoclonal antibody against GRP78 (N-20, Santa Cruz, Calif.) or a monoclonal antibody against K5 (Green Mountain Antibodies, Burlington, Vt.). The antibodies were added to HMVECs at various concentrations for 1 hour at room temperature. Cells were washed and the amount of bound ^125IK5 (dog) bound was counted. Competition binding was also tested against 2 nM 3HK5. K5 peptides or a c-terminal antibody to GRP78 (A-129, Santa Cruz, Calif.) were added to HMVECs at various concentrations for 1 hour at room temperature. Cells were washed, lysed and the amount of ^3HK5 bound was estimated by scintillation counting.

[8] = molecular target: T3, recombinant human GRP78 (rGRP78) (Homo sapiens, UniProt P11021); test: Equilibrium dialysis of rGRP78 and 3HK5; format: binding; conditions: competition dialysis, 2 nM GRP78 and 2 nM 3HK5; mutant up to 25-fold excess of GRP78
T3 construct: host or cells: yeast
Procedure: FIG. 14A is a graph showing equilibrium dialysis of recombinant GRP78 (rGRP78) and ^3HK5. ^3HK5 was added to one side of an equilibrium chamber at concentrations from 0.1 to 3 nM. 2 nM GRP78 was added to the other side of the chamber with a […] mwco filter between. ^3HK5 was allowed to equilibrate to both side of the chamber for 72 hours at room temperature. The amount of ^3HK5 on the GRP78 side of the chamber was compared to chamber with ^3HK5 alone to obtain the bound verses free rK5 distribution.
FIG. 14B is a graph showing competition binding dialysis rGRP78 and ^3HK5. Experiments were performed with 2 nM GRP78 and 2 nM ^3HK5 using rK5(K82A) mutant and unlabeled rK5 at various concentrations from 0.5 to 50 nM. The amount of ^3HK5 on both sides of the chamber was measured after 72 hours and compared to the control.
Binding of rK5 to rGRP78 was measured using equilibrium dialysis (Kariv I, Cao H, Oldenburg K R. Development of a high throughput equilibrium dialysis method. J Pharm Sci. 2001 May; 90(5):580-87). In the top well of a 96 well equilibrium dialyzer (molecular weight cut off 50K Daltons, Harvard Apparatus, Holliston, M A) 150 μl of 10 nM rGRP78 was added. In the reciprocal (bottom) chamber, 150 μl of increasing concentrations from 0.1 to 50 nM ^3HK5 was added. The chambers were shaken at room temperature for 72 hours. […]

T1 sequence (P11021 19-654): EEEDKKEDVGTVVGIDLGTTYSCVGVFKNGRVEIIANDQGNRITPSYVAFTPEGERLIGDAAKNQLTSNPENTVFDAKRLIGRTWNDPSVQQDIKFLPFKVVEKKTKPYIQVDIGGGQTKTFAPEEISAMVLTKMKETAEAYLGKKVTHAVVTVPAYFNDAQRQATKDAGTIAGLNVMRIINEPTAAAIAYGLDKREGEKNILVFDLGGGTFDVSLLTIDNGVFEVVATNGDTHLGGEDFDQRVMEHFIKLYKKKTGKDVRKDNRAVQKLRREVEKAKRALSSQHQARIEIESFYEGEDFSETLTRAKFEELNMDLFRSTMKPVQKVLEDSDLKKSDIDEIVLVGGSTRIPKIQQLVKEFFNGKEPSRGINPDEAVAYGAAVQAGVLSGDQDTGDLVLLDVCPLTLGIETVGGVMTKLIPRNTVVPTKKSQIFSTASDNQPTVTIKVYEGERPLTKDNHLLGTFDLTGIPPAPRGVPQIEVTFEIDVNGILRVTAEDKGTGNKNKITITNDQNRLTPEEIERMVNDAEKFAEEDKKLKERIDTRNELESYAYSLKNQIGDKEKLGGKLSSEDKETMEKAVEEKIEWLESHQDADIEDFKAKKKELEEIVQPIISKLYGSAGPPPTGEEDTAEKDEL
GRP78 on the surface of human cells (EAHY, HMVEC, HT1080) (human), sequence (P11021 19-654): as above
T3 sequence (P11021 19-654): as above
T2 sequence (P11021 19-654 limits assumed): as the sequence (P11021 19-654) above

**Q.** Which results are given for `COc1cccc2c1C(=O)c1c(O)c3c(c(O)c1C2=O)C[C@@](O)(C(=O)CO)C[C@@H]3O[C@H]1C[C@H](N)[C@H](O)[C@H](C)O1` [Adriamycin, reference compound]?
**A.** IC50 (D54): 5 ± 0.4 ng/mL (≈ 9.2 nM); effect against D54 cell growth in combination with rK5 (D54 human glioma cells; Adriamycin 50 nM in combination with rK5, 72 hours): very effective; inhibition of D54 cell growth, Adriamycin alone (D54 human glioma cells; Adriamycin 50 nM, 72 hours): did not inhibit; IC50 (LNCaP): 410 ± 100 ng/mL (≈ 754 nM); IC50 (HT-29): 118 ± 8 ng/mL (≈ 217 nM); IC50 (P388): 2.6 ± 0.2 ng/mL (≈ 4.78 nM); IC50 (HT1080): 2 ± 0.3 ng/mL (≈ 3.68 nM); IC50 (B16F10): 3.2 ± 0.4 ng/mL (≈ 5.89 nM)

**Q.** For “recombinant dog kringle 5, radioiodinated (^125IrK5 (dog)) (ligand)”, which Kd [1] is on record?
**A.** The Kd was 0.8 nM.

**Q.** And the binding sites per cell (binding sites per cell) [2]?
**A.** The binding sites per cell (binding sites per cell) was 32500.

**Q.** And the IC50, inhibition of VEGF stimulated HMVEC migration [3]?
**A.** Its IC50, inhibition of VEGF stimulated HMVEC migration is 0.5 nM.

B1: recombinant human kringle 5 (rK5), Kringle 5 (450-543) of human plasminogen (ligand, UniProt P00747 469-562, looked up)
chain: LLPDVETPSEEDCMFGNGKGYRGKRATTVTGTPCQDWAAQEPHRHSIFTPETNPRAGLEKNYCRNPDGDVGGPWCYTTNPRKLYDYCDVPQCAA
modifications: tritium-labelled where printed as ^3HK5
notes: range 450-543; Made in E. coli (His-tag removed by enterokinase) and in Pichia pastoris; Labelled and unlabelled rK5 are treated as one molecule; also called ^3HK5; H^3K5
**Q.** B1 was tested. Which “IC50, endothelial cell migration assay (^3HK5)” value [4] did it give?
**A.** Its value is 0.2 nM.

**Q.** What about the “apoptosis of HT1080 cells under hypoxic conditions” value [4] of the same molecule?
**A.** Its value is over 2 fold.

**Q.** What about the Kd [5] of the same molecule?
**A.** Its Kd is 0.8 nM.

**Q.** And the Kd [6]?
**A.** The Kd was about 0.7 nM.

**Q.** What about the “IC50, inhibition of VEGF stimulated HMVEC migration” value [7] of the same molecule?
**A.** The value was 0.2 nM.

B2: rK5(K82A): mutant rK5(K82A) (protein)
chain: LLPDVETPSEEDCMFGNGKGYRGKRATTVTGTPCQDWAAQEPHRHSIFTPETNPRAGLEKNYCRNPDGDVGGPWCYTTNPRALYDYCDVPQCAA
**Q.** What does the source list for B2?
**A.** blocking of 3HK5 binding to endothelial cells (HMVECs): did not inhibit; blocking of 3HK5 binding to rGRP78 [8]: did not block binding
